We go through one substance from publication PMC12262204.

Holding throughout (experiment): BLI
Experiment [1] deals with T1, Biotin-CGRP(8-37)NH2[N31D/S34P/K35W/A36S] (human).
T1 sequence (P06881 90-119 with N31D S34P K35W A36S, looked up): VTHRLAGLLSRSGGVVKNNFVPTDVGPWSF

In experiment [2] the target is biotin-CGRP(8-37)NH2 (human).
Experiment [3] addresses T1, Biotin-CGRP(8-37)NH2[N31D/S34P/K35W/A36S] (human). This is another data set of the same source.

Like-named read-outs stand apart in the source and are kept apart here.

Usually half-life stands for the time needed for the level to fall by half in the phase considered. A low value points to rapid decline. What is called residence time is how long the partners stay bound on average. The Kd is the concentration at which binding is half-saturated. A higher Kd goes with a looser complex. In general, koff refers to a measure of how fast the partners let go of each other. A higher koff goes with fast dissociation. One may read the kon as the second-order rate constant of association. In experiment [1], “RAMP1.24-111-(GS)5-CLR.29-134-H6 (CLR:RAMP1 ECD fusion protein) (from UniProt O60894 24-111; Q16602 29-134) (receptor)” returned a half-life of 1.52 min and a residence time of 2.18 min. Besides, in experiment [2], the Kd came out at 52.2 µM, the koff came out at 3.3 s⁻¹ and the kon came to 63300 M⁻¹ s⁻¹. The residence time in experiment [3] was found to be 132 s.
